Data set [1] addresses His-CKS1 (UniProt P61024).
Data set [2] deals with T1, 35S-labeled in vitro translated (IVT) SBP1 protein (human, UniProt Q8N5L8 1-163, 35S label).
T1 construct: Translated in reticulocyte lysate from the full-length SBP1 cDNA; The two differ only at the C-terminal residues; also called full-length SBP1; human SBP1
T1 sequence: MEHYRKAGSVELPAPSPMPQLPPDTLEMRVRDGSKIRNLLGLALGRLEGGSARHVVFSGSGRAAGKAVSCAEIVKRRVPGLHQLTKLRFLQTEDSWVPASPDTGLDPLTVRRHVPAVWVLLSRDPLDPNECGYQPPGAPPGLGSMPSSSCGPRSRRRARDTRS
In words: GST pull-down of 35S-labeled IVT SBP1, SDS-PAGE and fluorography. How it is done: cDNAs encoding wild type Survivin or Survivin T34E was cloned into the EcoRI and XhoI sites of pGEX-4T-1 (Amersham-Pharmacia, Sweden), expressed in XL-1-blue cells (Stratagene, Inc., La Jolla, Calif.), and affinity-purified using glutathione-Sepharose, using methods essentially as described in (Xie et al., 1998, Biochemistry, 37:6410-6418). A GST-CD40 fusion protein was included as a negative control. Purified GST-fusion proteins (0.5-1.0 μg immobilized on 10-20 μl of glutathione beads) and 2.5 μl of […] reticulocyte lysates (TNT-Lysates; Promega, Inc., Madison, Wis.) containing ³⁵S-labeled in vitro translated (IVT) SBP1 protein were incubated in […] of HKMEN (10 mM HEPES [pH 7.2], 142 mM KCl, 5 mM MgCl₂, 2 mM EGTA, 0.1% NP-40) at 4° C. for 30 minutes. The beads were washed 3× with 1 ml HKMEN solution to remove unbound ³⁵S-labeled IVT SBP1 protein, followed by boiling in 25 μl of Laemmli-SDS sample buffer to release and denature SBP1 bound to the matrix-bound GST-fusion protein. The eluted proteins were analyzed by SDS-PAGE (12%) and detected by fluorography.

Data set [3] addresses T2, fusion protein of the B42 trans-activation domain fused to pro-caspase-9 (UniProt P55211 1-416).
T2 sequence (looked up): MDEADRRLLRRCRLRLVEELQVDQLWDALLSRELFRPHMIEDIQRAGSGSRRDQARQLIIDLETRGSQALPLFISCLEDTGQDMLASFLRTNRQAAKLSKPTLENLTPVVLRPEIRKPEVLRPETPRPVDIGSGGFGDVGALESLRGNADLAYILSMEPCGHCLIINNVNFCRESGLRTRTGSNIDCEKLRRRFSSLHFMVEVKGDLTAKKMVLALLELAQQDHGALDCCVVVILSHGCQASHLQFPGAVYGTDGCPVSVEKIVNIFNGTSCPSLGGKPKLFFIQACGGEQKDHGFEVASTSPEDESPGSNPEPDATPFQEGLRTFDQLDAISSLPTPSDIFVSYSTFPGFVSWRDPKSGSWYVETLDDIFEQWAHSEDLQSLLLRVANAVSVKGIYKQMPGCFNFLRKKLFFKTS
Put plainly: yeast two-hybrid, LEU2 growth and beta-galactosidase filter assay. How it is done:
(§1) A plasmid (1 μg DNA) encoding a fusion protein of the LexA DNA-binding domain appended to the N-terminus of SBP1 was co-transformed into yeast strain EGY48 with […] of pJG4-5 plasmid encoding fusion proteins of the B42 trans-activation domain fused to Survivin, Survivin T34E, Bcl-2, pro-caspase-9, XIAP, Bax, or Apaf-1. Bcl-2, pro-caspase-9, XIAP, Bax, and Apaf-1 are other […]. […] Only the Survivin T34E scored positive for leucine and β-galactosidase activity, wild type Survivin, Bcl-2, caspase-9, XIAP, Bax and Apaf-1 scored negative under the conditions.

In data set [4] the target is fusion protein of the B42 trans-activation domain fused to XIAP (UniProt P98170 1-497). The data set is described as above. How it is done: as §1
Chain of fusion protein of the B42 trans-activation domain fused to XIAP (P98170 whole entry, the tested form may be a part): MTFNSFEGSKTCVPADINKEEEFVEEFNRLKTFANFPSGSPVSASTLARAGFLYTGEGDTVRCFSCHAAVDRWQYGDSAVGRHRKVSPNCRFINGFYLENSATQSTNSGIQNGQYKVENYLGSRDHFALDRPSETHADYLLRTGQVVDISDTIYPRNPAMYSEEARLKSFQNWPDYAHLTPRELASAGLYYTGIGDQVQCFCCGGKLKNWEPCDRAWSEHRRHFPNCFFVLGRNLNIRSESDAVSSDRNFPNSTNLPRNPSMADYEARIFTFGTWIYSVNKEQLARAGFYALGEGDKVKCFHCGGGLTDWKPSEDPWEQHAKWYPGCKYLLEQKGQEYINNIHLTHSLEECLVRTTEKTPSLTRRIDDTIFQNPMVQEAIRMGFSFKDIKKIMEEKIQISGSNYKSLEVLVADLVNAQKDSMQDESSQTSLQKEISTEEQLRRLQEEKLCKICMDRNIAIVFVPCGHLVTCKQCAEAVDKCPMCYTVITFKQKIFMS
The target of data set [5] is T3, fusion protein of the B42 trans-activation domain fused to Apaf-1 (UniProt O14727 1-1248).
T3 sequence (looked up): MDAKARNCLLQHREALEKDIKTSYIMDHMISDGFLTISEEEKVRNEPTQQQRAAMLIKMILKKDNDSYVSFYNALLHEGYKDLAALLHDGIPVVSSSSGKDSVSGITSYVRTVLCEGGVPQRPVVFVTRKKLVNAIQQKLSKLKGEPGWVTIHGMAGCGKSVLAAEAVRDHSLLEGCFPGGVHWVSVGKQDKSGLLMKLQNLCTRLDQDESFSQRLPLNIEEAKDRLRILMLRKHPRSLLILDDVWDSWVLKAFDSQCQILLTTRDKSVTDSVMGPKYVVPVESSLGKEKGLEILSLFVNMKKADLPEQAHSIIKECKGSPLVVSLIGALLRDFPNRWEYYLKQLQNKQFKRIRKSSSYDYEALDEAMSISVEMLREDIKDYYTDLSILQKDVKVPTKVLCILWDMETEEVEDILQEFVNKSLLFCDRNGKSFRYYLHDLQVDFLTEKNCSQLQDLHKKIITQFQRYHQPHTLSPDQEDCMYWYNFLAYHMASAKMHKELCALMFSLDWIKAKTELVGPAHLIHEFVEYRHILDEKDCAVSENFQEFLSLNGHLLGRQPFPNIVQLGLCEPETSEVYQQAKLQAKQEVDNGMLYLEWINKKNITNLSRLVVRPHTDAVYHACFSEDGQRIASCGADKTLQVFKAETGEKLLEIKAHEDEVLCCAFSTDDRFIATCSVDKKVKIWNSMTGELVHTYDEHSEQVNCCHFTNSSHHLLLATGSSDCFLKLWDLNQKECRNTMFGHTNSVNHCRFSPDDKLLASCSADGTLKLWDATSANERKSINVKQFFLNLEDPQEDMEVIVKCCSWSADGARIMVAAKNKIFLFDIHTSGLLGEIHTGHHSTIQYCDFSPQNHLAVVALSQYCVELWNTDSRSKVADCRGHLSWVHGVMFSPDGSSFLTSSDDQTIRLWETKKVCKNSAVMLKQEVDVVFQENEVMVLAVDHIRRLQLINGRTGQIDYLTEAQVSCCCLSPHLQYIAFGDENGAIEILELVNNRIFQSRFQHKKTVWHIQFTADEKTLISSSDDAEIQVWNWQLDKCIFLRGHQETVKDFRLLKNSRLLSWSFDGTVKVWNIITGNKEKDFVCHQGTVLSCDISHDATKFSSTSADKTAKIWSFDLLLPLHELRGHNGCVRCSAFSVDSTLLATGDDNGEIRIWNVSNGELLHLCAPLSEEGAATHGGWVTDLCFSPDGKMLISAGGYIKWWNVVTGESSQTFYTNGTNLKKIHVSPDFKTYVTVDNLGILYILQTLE
The description is as above. How it is done: as §1

Chain of His-CKS1 (P61024 whole entry, looked up): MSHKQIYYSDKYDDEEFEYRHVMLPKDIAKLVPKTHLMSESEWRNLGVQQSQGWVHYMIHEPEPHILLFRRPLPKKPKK

As to immunoprecipitated cyclin B1/cdc2, the “histone H1 phosphorylation” value in data set [1] is listed as “is phosphorylated in the added presence of His-Cks 1”.

B1: GST-CD40 cytosolic domain protein (other, UniProt P25942 216-277, looked up)
chain: KKVAKKPTNKAPHPKQEPQEINFPDDLPGSNTAAPVQETLHGCQPVTQEDGKESRISVQERQ
notes: domain: cytosolic domain; Negative control; also called GST-CD40 fusion protein; not shown: glutathione S-transferase (GST) fusion partner
For the molecule B1, the binding result in data set [2] is reported as “no binding”.

B2: fusion protein of the LexA DNA-binding domain appended to the N-terminus of SBP1 (other)
chain: MKALTARQQEVFDLIRDHISQTGMPPTRAEIAQRLGFRSPNAAEEHLKALARKGVIEIVSGASRGIRLLQEEEEGLPLVGRVAAGEPLLAQQHIEGHYQVDPSLFKPNADFLLRVSGMSMKDIGIMDGDLLAVHKTQDVRNGQVVVARIDDEVTVKRLKKQGNKVELLPENSEFKPIVVDLRQQSFTIEGLAVGVIRNGDWLMEHYRKAGSVELPAPSPMPQLPPDTLEMRVRDGSKIRNLLGLALGRLEGGSARHVVFSGSGRAAGKAVSCAEIVKRRVPGLHQLTKLRFLQTEDSWVPASPDTGLDPLTVRRHVPAVWVLLSRDPLDPNECGYQPPGAPPGLGSMPSSSCGPRSRRRARDTRS
notes: Yeast two-hybrid construct expressed in yeast strain EGY48
For the molecule B2, the binding result in data set [3], in data set [4] and in data set [5] was “no binding” throughout.

The values above are taken from US20060035359A1 (BURNHAM INSTITUTE, published 2006).
